Results from patent publication US6670114 (N V INNOGENETICS, dated 2003).

Molecular target: T1, LDL (purified human low-density lipoprotein, Cappel) (human, UniProt P04114 28-4563)
T1 construct: This is a lipoprotein particle, not a single protein; also called solid phase LDL
Assay: ELISA: biotinylated envelope protein on coated LDL, streptavidin-peroxidase

B1: E2s (recombinant truncated HCV envelope protein E2, aa 384-673, genotype 1b) (other)
chain: HTRVSGGAAASNTRGLVSLFSPGSAQKIQLVNTNGSWHINRTALNCNDSLQTGFFAALFYKHKFNSSGCPERLASCRSIDKFAQGWGPLTYTEPNSSDQRPYCWHYAPRPCGIVPASQVCGPVYCFTPSPVVVGTTDRFGVPTYNWGANDSDVLILNNTRPPRGNWFGCTWMNGTGFTKTCGGPPCNIGGAGNNTLTCPTDCFRKHPEATYARCGSGPWLTPRCMVHYPYRLWHYPCTVNFTIFKVRMYVGGVEHRFGAACNWTRGERCDLEDRDRSELSPLLLSTTEWQ
modifications: biotinylated (sites not given)
notes: also called biotinylated E2
Question: Does B1 bind?
Answer: no binding
